From patent publication US20220195063A1 (BYONDIS B V, published 2022)

T1: cynomolgus SIRPα (cySIRPα), protein antigen (cynomolgus monkey, UniProt A0A2K5VYQ9 31-369)
T1 construct: Coated on the plate in ELISA
T1 sequence: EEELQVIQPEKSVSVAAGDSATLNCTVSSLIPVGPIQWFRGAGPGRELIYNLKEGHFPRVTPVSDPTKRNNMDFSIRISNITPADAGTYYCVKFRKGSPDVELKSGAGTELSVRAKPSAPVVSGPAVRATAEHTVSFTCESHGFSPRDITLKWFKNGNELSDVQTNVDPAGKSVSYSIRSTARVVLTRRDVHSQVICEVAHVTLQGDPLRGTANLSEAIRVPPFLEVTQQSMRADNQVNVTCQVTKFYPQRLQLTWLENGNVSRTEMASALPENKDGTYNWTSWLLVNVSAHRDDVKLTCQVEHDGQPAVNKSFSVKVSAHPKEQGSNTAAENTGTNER


Experiments:
[1] = biological target: human SIRPαBIT (huSIRPαBIT), protein antigen (human) (UniProt P78324); test: ELISA, antigen coated
Sequence of human SIRPαBIT (huSIRPαBIT), protein antigen (human) (P78324 31-370): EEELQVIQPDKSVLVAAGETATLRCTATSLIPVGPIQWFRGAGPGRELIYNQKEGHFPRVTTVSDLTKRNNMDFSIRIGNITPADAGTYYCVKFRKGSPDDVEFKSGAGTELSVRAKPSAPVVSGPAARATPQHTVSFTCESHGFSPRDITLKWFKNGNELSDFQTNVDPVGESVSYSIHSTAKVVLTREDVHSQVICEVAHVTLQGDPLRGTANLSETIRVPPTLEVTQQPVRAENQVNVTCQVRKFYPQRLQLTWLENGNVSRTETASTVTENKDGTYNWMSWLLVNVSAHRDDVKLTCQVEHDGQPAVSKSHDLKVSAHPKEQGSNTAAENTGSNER

[2] = biological target: human SIRPβ1v1 (huSIRPβ1v1) (human) (UniProt O00241); test: ELISA, antigen coated
Sequence of human SIRPβ1v1 (huSIRPβ1v1) (human) (O00241 30-371): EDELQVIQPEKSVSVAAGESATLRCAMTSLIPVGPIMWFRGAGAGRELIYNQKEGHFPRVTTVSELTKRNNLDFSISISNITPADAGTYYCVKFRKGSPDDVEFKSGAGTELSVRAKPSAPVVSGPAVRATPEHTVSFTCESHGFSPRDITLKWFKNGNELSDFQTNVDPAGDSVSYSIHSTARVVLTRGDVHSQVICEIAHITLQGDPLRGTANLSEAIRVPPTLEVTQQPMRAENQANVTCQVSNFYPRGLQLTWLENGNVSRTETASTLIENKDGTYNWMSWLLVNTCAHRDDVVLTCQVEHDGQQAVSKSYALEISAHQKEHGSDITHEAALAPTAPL

[3] = biological target: human SIRPαBIT expressed on cells (human) (UniProt P78324); test: flow cytometry, U937 cells
Sequence of human SIRPαBIT expressed on cells (human) (P78324 31-504): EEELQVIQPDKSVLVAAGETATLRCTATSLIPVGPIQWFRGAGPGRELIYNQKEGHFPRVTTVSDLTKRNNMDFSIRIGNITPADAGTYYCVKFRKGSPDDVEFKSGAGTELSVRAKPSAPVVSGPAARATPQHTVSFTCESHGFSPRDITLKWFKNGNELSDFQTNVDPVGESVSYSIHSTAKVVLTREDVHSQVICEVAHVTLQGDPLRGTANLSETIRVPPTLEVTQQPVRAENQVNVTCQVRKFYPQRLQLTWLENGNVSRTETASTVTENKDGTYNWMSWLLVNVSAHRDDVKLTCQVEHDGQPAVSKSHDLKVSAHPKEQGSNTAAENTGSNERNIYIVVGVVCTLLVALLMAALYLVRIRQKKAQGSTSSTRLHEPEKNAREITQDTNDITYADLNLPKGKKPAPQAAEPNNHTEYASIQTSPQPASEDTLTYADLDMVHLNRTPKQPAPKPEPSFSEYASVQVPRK

[4] = biological target: T2, human SIRPα1 (huSIRPα1), protein antigen (human, UniProt P78324 31-370, limits assumed, biotinylated in the SPR assay); test: ELISA, antigen coated
T2 construct: Coated on the plate in ELISA, biotinylated and captured in SPR; also called v2
T2 sequence (P78324 other isoform, or with tags, fused parts or gaps limits assumed): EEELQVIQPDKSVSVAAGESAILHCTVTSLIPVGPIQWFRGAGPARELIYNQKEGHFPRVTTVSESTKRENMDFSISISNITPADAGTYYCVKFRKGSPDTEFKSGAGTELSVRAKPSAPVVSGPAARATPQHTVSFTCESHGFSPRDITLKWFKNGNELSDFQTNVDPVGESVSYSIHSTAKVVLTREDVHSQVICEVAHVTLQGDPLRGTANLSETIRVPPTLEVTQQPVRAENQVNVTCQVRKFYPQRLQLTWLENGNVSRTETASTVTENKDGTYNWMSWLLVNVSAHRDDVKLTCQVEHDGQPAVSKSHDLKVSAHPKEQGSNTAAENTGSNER
Description: (§1) ELISA assay: Solutions of huSIRPα₁, huSIRPαBIT, huSIRPβ₁ᵥ₁, huSIRPβ₁ᵥ₂, huSIRPγ and cySIRPα in phosphate buffered saline (PBS) were each added to a multiple well black polystyrene plate for ELISA and allowed to adhere for 1 h at RT. Unbound protein was removed with three washing steps using standard washing buffer. Subsequently, blocking buffer was added to the wells. After 1 h incubation at RT, the wells were washed three times with standard washing buffer. The antibodies in buffer at various concentrations were added to the wells and incubated at RT for 1 h. Unbound antibodies were removed with three washing steps using standard washing buffer. Goat anti human IgG (Fab′)₂:horse radish peroxidase (HRP) in buffer was added to the wells and incubated at RT for 1 h. 3,3′,5,5′-Tetramethylbenzidine (TMB) was added and after sufficient colour development HCl was added. Absorbance was read at 450 nm/620 nm.

[5] = biological target: T3, human SIRPβ1v2 (huSIRPβ1v2) (human, UniProt Q5TFQ8 30-371); test: ELISA, antigen coated
T3 construct: Coated on the plate in ELISA; Only the Ensembl protein number is printed; also called huSIRPß1v2
T3 sequence (Q5TFQ8 30-371 limits assumed): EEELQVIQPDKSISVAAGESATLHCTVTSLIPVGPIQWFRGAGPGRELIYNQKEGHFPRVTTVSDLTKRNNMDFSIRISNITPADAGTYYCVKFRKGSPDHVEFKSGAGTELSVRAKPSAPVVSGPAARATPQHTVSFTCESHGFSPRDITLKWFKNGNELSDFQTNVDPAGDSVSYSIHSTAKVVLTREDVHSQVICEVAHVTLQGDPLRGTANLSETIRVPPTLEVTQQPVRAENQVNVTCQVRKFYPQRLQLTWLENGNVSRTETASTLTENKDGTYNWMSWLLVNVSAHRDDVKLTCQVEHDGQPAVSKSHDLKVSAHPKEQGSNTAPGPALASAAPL
Description: as §1

human SIRPγ (huSIRPγ) = biological target: T4, human SIRPγ (huSIRPγ) (human, UniProt Q9P1W8 29-360, limits assumed, biotinylated in the SPR assay); test: ELISA, antigen coated
T4 construct: Coated on the plate in ELISA, biotinylated and captured in SPR
T4 sequence (Q9P1W8 29-360 limits assumed): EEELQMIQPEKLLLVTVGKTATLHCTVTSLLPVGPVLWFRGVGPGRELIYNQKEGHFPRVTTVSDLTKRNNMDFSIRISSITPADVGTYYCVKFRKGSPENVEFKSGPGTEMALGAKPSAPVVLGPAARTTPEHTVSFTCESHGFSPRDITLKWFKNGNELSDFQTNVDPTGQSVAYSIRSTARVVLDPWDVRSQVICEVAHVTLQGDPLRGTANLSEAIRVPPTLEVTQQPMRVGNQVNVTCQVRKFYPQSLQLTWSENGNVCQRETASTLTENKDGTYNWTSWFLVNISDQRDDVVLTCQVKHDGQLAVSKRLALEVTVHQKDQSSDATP
Description: as §1

[6] = biological target: T1, cynomolgus SIRPα (cySIRPα), protein …; test: ELISA, antigen coated
Description: as §1

EC50 [1] [µg/mL]	EC50 [2] [µg/mL]	EC50 [3] [µg/mL]	EC50 [4] [µg/mL]	EC50 [5] [µg/mL]	EC50 (human SIRPγ (huSIRPγ)) [µg/mL]	EC50 [6] [µg/mL]	Binder
0.026	> 100	0.11	0.023	0.047	> 100	0.03	anti-SIRPα antibody 9 (antibody, human IgG1, kappa, L234A L235A, V domains shown, Rabbit variable regions on human IgG1 LALA / kappa) VH: QSMEESGGRLVTPGTPLTLTCTASGFSLSNYGVSWVRQAPGKGLEWIGIIYGGSDITAYASWAKGRFTISKTSTTVDLTITSPTTEDTATYFCAKSYTNGMDYYNIWGPGTLVTVSL VL: AFDLTQTPSSVEAPVGGTVIIKCQASQSISSYLAWYQQKPGQPPKLLIYSASTLASGVSSRFKGSGSETQFPLTISDLESADAATYYCQSYYGSRSNVFGGGTEVVVKR
–	–	0.16	–	–	–	–	anti-SIRPα antibody 15 humanized (antibody, human IgG1, kappa, L234A L235A, V domains shown) VH: RSVEESGGRLVTPGTPLTLTCTVSGFSLSSHGISWVRQAPGKGLEYIGTIGTGVITYFASWAKGRFTGSKTSTTVDLKITSPTTEDTATYFCARGSAWNDPFDPWGPGTLVTVSS VL: ELVMTQSPSSLSASVGDRVTITCQASQSVYGNNDLAWYQQKPGEAPKLLIYLASTLATGVPSRFSGSGSGTDFTLTISGLQSEDFATYYCLGGGDDEADNVFGQGTKVEIKR
–	–	0.23	–	–	–	–	anti-SIRPα antibody 16 humanized (antibody, human IgG1, kappa, L234A L235A, V domains shown) VH: RSVEESGGRLVTPGTPLTLTCTVSGFSLSSHGISWVRQAPGKGLEYIGTIGTGVITYFASWAKGRFTGSKTSTTVDLKITSPTTEDTATYFCARGSAWNDPFDPWGPGTLVTVSS VL: DIEMTQSPSSVSASVGDRVTLTCQASQSVYGNNDLAWYQQKPGQAPKLLIYLASTLATGVPSRFSGSGSGTDFTLTISSLQPEDFATYYCLGGGDDEADNVFGGGTKVEIKR

Further lines, the binder ahead of its results:

Binder	EC50 [1] [µg/mL]	EC50 [2] [µg/mL]	EC50 [3] [µg/mL]	EC50 [4] [µg/mL]	EC50 [5] [µg/mL]	EC50 (human SIRPγ (huSIRPγ)) [µg/mL]	EC50 [6] [µg/mL]
29AM4-5huIgG1LALA (antibody, V domains shown, HAVT20 leader left out) VH: EVQLVESGGGLVQPGGSLRLSCAASGFNISYYFIHWVRQAPGKGLEWVASVYSSFGYTYYADSVKGRFTISADTSKNTAYLQMNSLRAEDTAVYYCARFTFPGLFDGFFGAYLGSLDYWGQGTLVTVSS VL: DIQMTQSPSSLSASVGDRVTITCRASQSVSSAVAWYQQKPGKAPKLLIYSASSLYSGVPSRFSGSRSGTDFTLTISSLQPEDFATYYCQQAVNWVGALVTFGQGTKVEIKR	0.009	0.013	0.25	0.009	0.017	0.034	0.011
anti-SIRPα antibody 1 (antibody, human IgG1, kappa, L234A L235A, V domains shown, Rabbit variable regions on human IgG1 LALA / kappa) VH: QSVEESGGRLVTPGTPLTLTCTVSGIDLSSYAMSWVRQAPGKGLEWIGIISSGGITYYASWAKGRFTISKTSTTVDLKIPSPTTEDTATYFCARSLWAASNYYMALWGPGTLVTVSS VL: AIKMTQTPASVSAAVGGTVSINCQASEDIESYLAWYQQKPGQPPKLLIYRASTLASGVSSRFKGSGSGTQFTLTISDLESADAATYYCLGDYYSSSGDTGAFGGGTEVVVKR	0.021	–	–	0.039	0.058	0.043	0.305
anti-SIRPα antibody 6 (antibody, human IgG1, kappa, L234A L235A, V domains shown, Rabbit variable regions on human IgG1 LALA / kappa) VH: QSVEESGGRLVTPGTPLTLTCTVSGIDLSSYTMTWVRQAPGKGLEWIGIIYAGGSTAYASWAKGRFTISKTSTTVDLKITSPTTEDTATYFCARSSSDGYDYFNIWGPGTLVTVSL VL: GVVMTQTPSSVSAAVGGTVTINCQASQSIGSWLAWYQQKPGQPPKLLIYQASKLASGVPSRFSGRGSGTHFTLTISDVQSDDAATYYCQQTVTAASNVDNAFGGGTEVVVKR	0.02	> 100	–	0.021	0.024	> 100	0.033
